From the DeepSol protein solubility set

Assay: soluble on expression in E. coli; label from the status in PepcDB or PDB records
For “MGSDKIHHHHHHKAFPLRTVFSEGIYYVCAEDLAPAGVGYIHSNGYHYIVYDNHVLFIKEHETIFDFVEKLSPPLFVDGLLFVPIDALKKVMEGYQMYTKGEKVLIYDSLPIVLSAAKEKNGVTITYTGTIVPDMVSVEKSMGRVRINLSPVVVSLPNVSEDIKVELEKNGLSFIVDVGNFYPDVEYSIGDGKLLFRFLLVEGFFGRLEVADGVVFERKIEEFDEGEKTVVNYLIMDPEKVTIKPVVSENGFGTIERLDEMVKRVGGIAGINGNYFDPVTKFPIGLVVIDGKPYSAMFSGRPVFAITEDNEVFIGRVIVDVTLMVKDVLFLVKGINTLGEGEVLVYTKEFSKEIPKKDDKIYFVVKDSKVSQIGYKSHAEDSEYVVSISKKYEEYLSDLKEGDEVYISLQPNIPLRIKQAVEGGPLLIQNGAPIPDAWEEKARYGGGIAYAKAPRTVIATKDGKLWFLVFEGYNHITRGLTYDELVDFLVSRGFEDAMCVDGGSSSVMAVAGSLFGRTENSTAAIPVGIVVWEKKKTEVGK”, the “soluble on expression in E. coli” value was “not soluble”. In the case of “NANDNVVIVGTGLAGVEVAFGLRASGWEGNIRLVGDATVIPHHLPPLSKAYLAGKATAESLYLRTPDAYAAQNIQLLGGTQVTAINRDRQQVILSDGRALDYDRLVLATGGRPRPLPVASGAVGKANNFRYLRTLEDAECIRRQLIADNRLVVIGGGYIGLEVAATAIKANMHVTLLDTAARVLERVTAPPVSAFYEHLHREAGVDIRTGTQVCGFEMSTDQQKVTAVLCEDGTRLPADLVIAGIGLIPNCELASAAGLQVDNGIVINEHMQTSDPLIMAVGDCARFHSQLYDRWVRIESVPNALEQARKIAAILCGKVPRDEAAPWFWSDQYEIGLKMVGLSEGYDRIIVRGSLAQPDFSVFYLQGDRVLAVDTVNRPVEFNQSKQIITDRLPVEPNLLGDESVPLKEIIAAAKAELSSAKAELSSAPRHHHHHH”, the “soluble on expression in E. coli” value is reported as “soluble”. In the case of “METNIVEVENFVQQSEERRGSAFTQEVKRYLERYPNTQYVDVLLTDLNGCFRGKRIPVSSLKKLEKGCYFPASVFAMDILGNVVEEAGLGQEMGEPDRTCVPVLGSLTPSAADPEFIGQMLLTMVDEDGAPFDVEPRNVLNRLWQQLRQRGLFPVVAVELEFYLLDRQRDAEGYLQPPCAPGTDDRNTQSQVYSVDNLNHFADVLNDIDELAQLQLIPADGAVAEASPGQFEINLYHTDNVLEACDDALALKRLVRLMAEKHKMHATFMAKPYEEHAGSGMHIHISMQNNRGENVLSDAEGEDSPLLKKMLAGMIDLMPSSMALLAPNVNSYRRFQPGMYVPTQASWGHNNRTVALRIPCGDRHNHRVEYRVAGADANPYLVMAAIFAGILHGLDNELPLQEEVEGNGLEQEGLPFPIRQSDALGEFIENDHLRRYLGERFCHVYHACKNDELLQFERLITETEIEWMLKNA”, the “soluble on expression in E. coli” value is reported as “soluble”. With “MAAKLEKTTNSFEVITREWYAKFSPTWNESHGERIIRRFERDIFPWIGSKPISEIAAPELLATVRRIESRGAVETAHRALGNCGQVFRYAIATARATRDISADLRGALPPVKGEHLEHHHHHH” the “soluble on expression in E. coli” value was “soluble”. With “GPGSMGVALTHGLQRQRQQRTAAGHRSANRRGKRGLPPSLLGRLCMFVFVWMHLAEERERRECRLQGKKVFLEESSAGSSRSCMRRRHVCGVRACAGRRGCFASSVISLRCWTSSQSAVVAALTRLRVSSFSAPHLFRLARSAAPTREAASTKYFIDSLAAHSSRLIGVRAPLAHTHVHLGDCIDSTTSACVCGEEIHHHRAQPGVTVSLCTPFSLSHTPSTAWAPLLPADKHHMQASPVLAGAAVRRTATASVGSEPRTNLPFLINVVKKAQKSANTVVASTPALSSMSSTKEPPIQAAAFKPYPLLSPGEVKQAAGSSLLYKDDVCVLVNDAFPKSMVHCLVMPLDLRLQSLNALTKKDAPLLRHMLHVGDEYVRYLKTAVPHTYTARRFIAGFHALPSLPMLHMHVLSTDLDSPCLKNKKHYNSFATFFFLTGDRVLDDLERHGRVTLNQDVTRLRQMEEQDMKCLWCGTALPSVPAMKSHIQCCPQNKAVEKSS” the “soluble on expression in E. coli” value was “not soluble”. With “MSTTTAITSTLQRVTKAPEGRRMLRVEARNSQTPIESKPRWIRTAVKTGPEYQDMKKKVSGASLHTVCQEAGCPNIHECWESREATFLIGGANCSRRCDFCQINSAKPEPLDRDEPRRVAESVREMQLNYSTITGVTRDDLEDEGAWLYAEVVRKIHELNPHTGVENLTPDFSGKPDLLQEVFEARPEVFAHNLETVPRIFKRIRPAFRYERSLDVIRQARDFGLVTKSNLILGMGETVDEIRDALVDLHSAGCDIITITQYLRPGPMYHPIDRWVKPEEFIDHADFARELGFGAVMSGPLVRSSYRAGKLYAEALAARGESLPENLAHLATTADGSTAQEANTLLEKYGPSQDTPVVSSKA” the “soluble on expression in E. coli” value was “not soluble”. With “KGFFALSSCTLGLGLILTACGARGKFDQVDDGVIKLATSIQNKDSIAALNTIYKKYKERHPGSYPVQNFQVPGGYSGLRNDIRTRLSAKDGNNFYNI” the “soluble on expression in E. coli” value was “not soluble”. In the case of “MGHHHHHHSHPAPAQLVQKAHELMWYVLVKDQKKMIIWFPDMVKDVIGSYKKWCRSILRRTSLILARVFGLHLRLTSLHTMEFALVKALEPEELDRVALSNRMPMTGLLLMILSLIYVKGRGARESAVWNVLRILGLRPWKKHSTFGDVRKLITEEFVQMNYLKYQRVPYVEPPEYEFFWGSRASREITKMQIMEFLARVFKKDPQA”, the “soluble on expression in E. coli” value is reported as “not soluble”. With “MSGQNNVVGVHYKVGRRIGEGSFGVIFEGTNLLNNQQVAIKFEPRRSDAPQLRDEYRTYKLLAGCTGIPNVYYFGQEGLHNVLVIDLLGPSLEDLLDLCGRKFSVKTVAMAAKQMLARVQSIHEKSLVYRDIKPDNFLIGRPNSKNANMIYVVDFGMVKFYRDPVTKQHIPYREKKNLSGTARYMSINTHLGREQSRRDDLEALGHVFMYFLRGSLPWQGLKAATNKQKYERIGEKKQSTPLRELCAGFPEEFYKYMHYARNLAFDATPDYDYLQGLFSKVLERLNTTEDENFDWNLL” the “soluble on expression in E. coli” value was “soluble”. For “MAHHHHHHMGQGLTGGAMAGAALSITALPLRLTLADHLGICGAATACGLALDFASDCCSKEGRVIIHRDVLLKAQDPLRHLSTFYTTCESNRMARLFRQKHEWVVLESHGQQYYVVQKNPATGDVLMDVRNSLRAANDVGLQVAGKPMHTGEIRQHRMETEFDLPSDLQVAYVIAWLRKEDPRWAFSTENSRQFTARVRYALMDF”, the “soluble on expression in E. coli” value was “not soluble”. With “MGSDKIHHHHHHMKWEEKRDMVKIATWYYHYGWTQAQIAKKIGISRSIISKTLQRAKDLGIVEIFIKDETYYTVDLEQKLEEKFGLEEAIVVATHDMSEEEALNFLAKEAAYTLSKRIAKVKTLGISWGKTIRKFANEFPFIPHKDLTIIPLIGGMGSSDIDLHSNQICYDLKKKMKCHSKYLYAPALVEDTEMKTDLSKNKYISEVLEEGKTVDMAIVGVSSPYNHSTMEEIGYINSEDIEELRYKDVVGDINSRFFTADGKEAKTEINTHVIGLSLEELKNIPTVVALANGLQKKEALVAALNAGLIDVIVITDRMAEYILQKND” the “soluble on expression in E. coli” value was “not soluble”. With “MEVAPSFSSVLKDCAVIEGQDFVLQCSVRGTPVPRITWLLNGQPIQYARSTCEAGVAELHIQDALPEDHGTYTCLAENALGQVSCSAWVTVH” the “soluble on expression in E. coli” value was “soluble”. With “MAHHHHHHSLKQKNAYNRLTNHYDDVLTGRKWWSWLYMHCLWKTDDNIIAGSVLDMIPGNFEGRILDVPVGTAIFTYDKYRRMPQAEIVGLDYSQEMLDIAAMRFSAEQITNVSLRQGDVGSLPFPDAAFDLVLSMNGFHVFPDKDRAFAETFRVLRGGGLFCGCFYVKGERKPADWFVRKFLDKKGLFRPPHYTREEAIEKLRSLYGDNVEIQDARSLLVFKCTKPREG” the “soluble on expression in E. coli” value was “soluble”. In the case of “MKEKIPFYNEKEFNEMMKKTKKGTFSGWYIINPENKSVEFSGNFNRQFKLNKPVIPVNTEYVTRKEFNEYKDSNDQRLTKIENKVDKLEVKVDKLEEKVDKLEAKVDKLEEKVDKLEAKVDKLEEKVDKLEAKVDSGFEMLAKILAAINKRLDSIEGRLDKIEPPKLEHHHHHH”, the “soluble on expression in E. coli” value is reported as “not soluble”. For “MSLKAAVYEGKKAIKMTELPTPKAGPNDVVIQNIYAGICGSDVAVYNHGSGTGHKIETDHEFGHEAVSKVVEVGDDVHDFKIGDRVYPYPLLARGDPSRAGSMGGFSEYILIPNAKLNRQLYLVPKEIDNHVAAMIEPFTVGTRAAKQTRPDKNDNAIVYGTGTIGMAAAVALKHLGVKQVMLVDLSDYRLNVAKELGFLTVNSSRDDVRSQAIEAFGKAEYSLHGEAPDTQIFLDAAGHNSILEDFLQFGPVGSRFVTVGVNNSKPQIDFLELIFGSKSVGGSGGYRPEDVQTVFEIMKERQSDLRKMVSQEFDWQDLEKGIQTATDTTISEKVLINYHEGHHHHHH”, the “soluble on expression in E. coli” value was “soluble”.
